The values that follow come from patent US20190016790A1 (MEDICINAL BIOCONVERGENCE RESEARCH CENTER, published 2019).

Test [1] has as its target T1, recombinant PICP protein (procollagen type I C-terminal propeptide), heterotrimer of two PICP α1 chains and … (human, UniProt P02452 1219-1464; P08123 1120-1366).
T1 construct: Biotinylated for the yeast Fab selection; also called recombinant PICP antigen; PIPC; not shown: 8xHis tag conjugated to the N-terminus of the α1 chain; c-Myc tag conjugated to the N-terminus of the α2 chain
The test can be described thus: yeast surface Fab display, MACS and FACS with biotinylated PICP. How it is done: A method of selecting clones specifically binding to PICP proteins from the yeast Fab library are as follows: Antigen protein PICP and similar protein PIIICP were prepared with purity of 99% or higher by the method of the present invention. The PICP proteins were conjugated to biotin using a kit (EZ-LINKTMSulfo-NHS-LC-Biotinylation kit, Pierce Inc., USA). Thereafter, a procedure of screening the constructed libraries using MACS and FACS and analyzing the induced pool was repeated. Through this, the expression level of antibody Fab and the binding affinity of biotinylated PICP can be analyzed.
The biotinylated PICP (500 nM) was conjugated to Fab library expressed on the yeast cell surface at 25° C. for 1 hour. The Fab library incubated with PICP was conjugated with streptavidin-microbead (Miltenyi Biotec Inc., Germany) at 4° C. for 10 minutes, and then clones conjugated with the biotinylated PICP were selected using magnetic-activated cell sorting (MACS). […] Thereafter, FACS procedure was twice repeated using biotinylated PICP with concentrations of 250 nM and 100 nM. […]

Test [2] concerns the target T1, recombinant PICP protein (procollagen …). In words: indirect ELISA, PICP coated at 2 ug/ml, anti-HA-HRP. (In general: An ELISA detects its analyte on a solid surface through an enzyme-linked reagent.)
Test [3] shares this target. The test can be described thus: sandwich ELISA, IgG coated as capture antibody, PICP titrated, polyclonal PICP antibody and anti-rabbit-HRP for detection. How it is done:
The binding specificity to PICP by IgG fragment having VH and VL of clones 1 and 2 (referred to as clone IgG and clone 2 IgG) was investigated by sandwich ELISA (FIG. 9).
2D, 4G, clone 1, clone 2 IgG antibodies as capture antibodies were coated on the microtiter plates, and PICP and PIIICP as antigens were added to each well (100 μl/well) at different concentrations, followed by incubation for 1 hour. After washing with 1×PBST (0.05 Tween 20), detection antibodies (polyclonal PICP antibodies) were diluted with 1×PBST, and added in 100 μl for each, followed by incubation for 1 hour. After washing with 1×PBST, rabbit-HRP (Millipore) antibodies were diluted with 1×PBST, and added in 100 μl for each, followed by incubation for 1 hour. After washing with 1×PBST, TMB solution was added to each well (50 μl/well) to investigate a color development reaction, and then the reaction was stopped by addition of 50 μl of 2N stop solution (H₂SO₄). The absorbance was read at a wavelength of 450 nm using ELISA reader (reference 620 nm).

For test [4], the target named is T2, recombinant PICP α2 chain (c-Myc tag at the N-terminus) (human, UniProt P08123 1120-1366).
T2 construct: Co-expressed with the α1 chain in HEK293F cells; also called recombinant procollagen α2 chain; not shown: c-Myc tag at the N-terminus
T2 sequence: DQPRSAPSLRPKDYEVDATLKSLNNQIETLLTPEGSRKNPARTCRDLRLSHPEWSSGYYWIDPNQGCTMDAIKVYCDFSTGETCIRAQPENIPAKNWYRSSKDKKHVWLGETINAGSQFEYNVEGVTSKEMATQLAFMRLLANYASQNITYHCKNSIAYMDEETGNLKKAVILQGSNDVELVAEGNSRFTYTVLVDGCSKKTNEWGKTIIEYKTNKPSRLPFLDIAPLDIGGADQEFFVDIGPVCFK
The test can be described thus: Western blot (anti-His, anti-c-Myc) of Ni/NTA-purified recombinant PICP, non-reducing and reducing SDS-PAGE. How it is done: The pSecTag2A-PICP α1 vector and the pSecTag2A-PICP α2 vector were mixed at a molar ratio of 2:1, and co-transfected into HEK293F cells. The co-transfected cells were cultured for 7 days, and culture supernatants were harvested, and the proteins were isolated and purified by the same method as in example <1-2>. PIIICP protein was also expressed, isolated, and purified by the same method. The sizes and purities of the purified proteins were analyzed using SDS-PAGE and western blotting (anti-His tag, anti-c-Myc tag) in reducing or non-reducing conditions.
On the technique in general: Immunoblotting shows a protein as a band on a membrane.

The target of test [5] is T3, recombinant procollagen type III C-terminal propeptide (PIIICP), His-tagged (UniProt P02461 1222-1466).
T3 construct: domain: C-terminal propeptide; Made in HEK293F cells in the same way as PICP; also called comparative antigen; not shown: His tag conjugated to the PIIICP protein
T3 sequence (looked up): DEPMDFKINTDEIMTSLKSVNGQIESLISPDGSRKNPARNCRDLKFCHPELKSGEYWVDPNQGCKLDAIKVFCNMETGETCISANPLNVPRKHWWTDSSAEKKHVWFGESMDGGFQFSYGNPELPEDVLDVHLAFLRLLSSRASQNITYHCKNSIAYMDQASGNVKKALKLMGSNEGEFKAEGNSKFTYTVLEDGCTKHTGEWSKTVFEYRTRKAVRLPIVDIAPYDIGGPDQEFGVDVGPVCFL
The test can be described thus: sandwich ELISA, 2D IgG coated at 16 ug/ml as capture antibody, PIIICP titrated, rabbit anti-PICP antibody and goat anti-rabbit IgG-HRP for detection.

Test [6] addresses T1, recombinant PICP protein (procollagen …). In words: SPR, Biacore 2000, PICP immobilized (185 RU), IgG 6.25-100 nM. An excerpt: Specific experiment conditions are as follows.
The affinity was obtained from kinetic rate constants (ka and kd) and equilibrium dissociation constants (KD) using BIA evaluation ver. 3.2 software.

The target in test [7] is T3, recombinant procollagen type III …. The test can be described thus: indirect ELISA, PIIICP coated at 2 ug/ml, anti-human IgG-HRP. How it is done:
PICP and PIIICP antigens prepared in <Example 1> were immobilized at a concentration of 2 ug/ml on microtiter plates at room temperature for 1 hour, and blocked with 1×PBST containing 2% skim milk at room temperature for 1 hour. 2D IgG and 4G IgG were serially diluted within a range of 15.625-1000 ng/ml, and added at 100 μl per well to the blocked plates, followed by incubation at room temperature for 1 hour. Human IgG-HRP antibodies (Millipore, 1:2,000) as secondary antibodies were added at 10 μl per well, followed by incubation at room temperature for 1 hour. The incubated microtiter plates were washed three or four times with 1×PBST, and then TMB solution was added at 50 μl per well to conduct a color development reaction at room temperature for 5-10 minutes. The color development reaction was stopped using H₂SO₄ (1 M), and then the absorbance was read at 450 nm using ELISA reader.

B1: clone 1 Fab (Fab, V domains shown)
VH: EVQLVESGGGLVQPGGSLRLSCAASGFTFSYYWMSWVRQAPGKGLEWVSTISYGGGGKYYADSVKGRFTISRDNSKNTLYLQMNSLRAEDTAVYYCVRSYGAIPPNTIDYWGQGTLVTVSS
VL: DIQMTQSPSSLSASVGDRVTITCRASQGISSDLAWYQQKPGKAPKLLIYAASSLQSGVPSRFSGSGSGTDFTLTISSLQPEDFATYYCQQPYSTPSTFGQGTKVEIK
Turning to B1, in test [1], the binding result is listed as “binds”.

B2: 2D scFv (scFv)
chain: EVQLLESGGGLVQPGGSLRLSCAASGFTFSSYYMSWVRQAPGKGLEWVSGISPGSGSKYYADSVKGRFTISRDNSKNTLYLQMNSLRAEDTAVYYCARATVPCKGPACYSAYGMDVWGQGTLVTVSSGGGGSGGGGSGGGGSQSVLTQPPSAPGTPGQRVTISCSGSSSNIGNNAVNWYQQLPGTAPKLLIYSNSHRPSGVPDRFSGSKSGTSASLAISGLRSEDEADYYCGSWDASLNGYVFGGGTKLTVLG
The EC50 (read off the curve) is the concentration that produces a half-maximal response. B2: the concentration giving a half-maximal response (EC50 (read off the curve)) in test [2] was approximately 0.3 µg/mL.

B3: 4G scFv (scFv)
chain: EVQLLESGGGLVQPGGSLRLSCAASGFTFSNYYMSWVRQAPGKGLEWVSLISSGNGNKYYADSVKGRFTISRDNSKNTLYLQMNSLRAEDTAVYYCARGSRRCSGAPCYSAYGMDVWGQGTLVTVSSGGGGSGGGGSGGGGSQSVLTQPPSASGTPGQRVTISCTGSSSNIGNNSVTWYQQLPGTAPKLLIYANSQRPSGVPDRFSGSKSGTSASLAISGLRSEDEADYYCGAWDDSLNAYVFGGGTKLTVLG
For B3, the “EC50 (read off the curve)” value in test [2] is approximately 0.1 µg/mL.

B4: clone 2 IgG (antibody, V domains shown)
VH: EVQLVESGGGLVQPGGSLRLSCAASGFTFSSYWMSWVRQAPGKGLEWVSVISYDGGNKYYADSVKGRFTISRDNSKNTLYLQMNSLRAEDTAVYYCAKWANDHNSDLNFDYWGQGTLVTVSS
VL: DIQMTQSPSSLSASVGDRVTITCRASQGISTDLGWYQQKPGKAPKLLIYAASSLESGVPSRFSGSGSGTDFTLTISSLQPEDFATYYCQQHDSYPTTFGQGTKVEIKR
notes: Chimeric: human Fab VH and VL of yeast clone 2 on mouse IgG2a heavy chain constant domains and mouse kappa light chain
Turning to B4, the binding result in test [3] is reported as “binds”.

B5: clone 2 Fab (Fab, V domains shown)
VH: EVQLVESGGGLVQPGGSLRLSCAASGFTFSSYWMSWVRQAPGKGLEWVSVISYDGGNKYYADSVKGRFTISRDNSKNTLYLQMNSLRAEDTAVYYCAKWANDHNSDLNFDYWGQGTLVTVSS
VL: DIQMTQSPSSLSASVGDRVTITCRASQGISTDLGWYQQKPGKAPKLLIYAASSLESGVPSRFSGSGSGTDFTLTISSLQPEDFATYYCQQHDSYPTTFGQGTKVEIK
B5: the binding result in test [1] is “binds”.

B6: clone 1 IgG (antibody, V domains shown)
VH: EVQLVESGGGLVQPGGSLRLSCAASGFTFSYYWMSWVRQAPGKGLEWVSTISYGGGGKYYADSVKGRFTISRDNSKNTLYLQMNSLRAEDTAVYYCVRSYGAIPPNTIDYWGQGTLVTVSS
VL: DIQMTQSPSSLSASVGDRVTITCRASQGISSDLAWYQQKPGKAPKLLIYAASSLQSGVPSRFSGSGSGTDFTLTISSLQPEDFATYYCQQPYSTPSTFGQGTKVEIKR
notes: Chimeric: human Fab VH and VL of yeast clone 1 on mouse IgG2a heavy chain constant domains and mouse kappa light chain; also called clone IgG
For B6, in test [3], the binding result is “binds”.

B7: recombinant PICP α1 chain (8xHis tag at the N-terminus) (other)
chain: DDANVVRDRDLEVDTTLKSLSQQIENIRSPEGSRKNPARTCRDLKMCHSDWKSGEYWIDPNQGCNLDAIKVFCNMETGETCVYPTQPSVAQKNWYISKNPKDKRHVWFGESMTDGFQFEYGGQGSDPADVAIQLTFLRLMSTEASQNITYHCKNSVAYMDQQTGNLKKALLLQGSNEIEIRAEGNSRFTYSVTVDGCTSHTGAWGKTVIEYKTTKTSRLPIIDVAPLDVGAPDQEFGFDVGPVCFL
notes: Co-expressed with the α2 chain in HEK293F cells; also called recombinant procollagen α1 chain; not shown: 8xHis tag at the N-terminus
With B7, the binding result in test [4] is recorded as “binds”.

B8: 2D IgG (antibody, V domains shown)
VH: EVQLLESGGGLVQPGGSLRLSCAASGFTFSSYYMSWVRQAPGKGLEWVSGISPGSGSKYYADSVKGRFTISRDNSKNTLYLQMNSLRAEDTAVYYCARATVPCKGPACYSAYGMDVWGQGTLVTVSS
VL: QSVLTQPPSAPGTPGQRVTISCSGSSSNIGNNAVNWYQQLPGTAPKLLIYSNSHRPSGVPDRFSGSKSGTSASLAISGLRSEDEADYYCGSWDASLNGYVFGGGTKLTVLG
notes: IgG made from 2D scFv VH and VL in pcDNA3.4 and expressed in 293F cells; Detected with human IgG-HRP; also called IgG containing the variable regions of clone 2D
A word on the Kd: it is a measure of binding affinity in units of concentration. As a reminder, the koff is the rate constant with which the complex falls apart. One may read the kon as the rate constant with which the complex forms. B8: the binding result in test [5] is recorded as “no binding (tested: 100 ng/ml)”. In test [6], the Kd was found to be 11.6 nM, the koff was determined as 0.00276 s⁻¹ and the on-rate constant (kon) amounted to 237000 M⁻¹ s⁻¹.

B9: 4G IgG (antibody, V domains shown)
VH: EVQLLESGGGLVQPGGSLRLSCAASGFTFSNYYMSWVRQAPGKGLEWVSLISSGNGNKYYADSVKGRFTISRDNSKNTLYLQMNSLRAEDTAVYYCARGSRRCSGAPCYSAYGMDVWGQGTLVTVSS
VL: QSVLTQPPSASGTPGQRVTISCTGSSSNIGNNSVTWYQQLPGTAPKLLIYANSQRPSGVPDRFSGSKSGTSASLAISGLRSEDEADYYCGAWDDSLNAYVFGGGTKLTVLG
notes: IgG made from 4G scFv VH and VL in pcDNA3.4 and expressed in 293F cells; Detected with human IgG-HRP; also called IgG containing the variable regions of clone 4G
For the molecule B9, in test [7], the binding result was “no binding (tested: 1000 ng/ml)”. In addition, in test [6], the Kd was 16.8 nM, the koff came to 0.00319 s⁻¹ and the on-rate constant (kon) is 190000 M⁻¹ s⁻¹.
